Experimental data reported in patent publication US7833979B2, “Toxin peptide therapeutic agents” (Amgen Inc., priority 2005, dated 2010).

Legend:
[1] = target: T1, Kv1.3 (Homo sapiens, UniProt P22001); assay: IonWorks Quattro automated (population patch clamp) electrophysiology on CHO-Kv1.3 cells; format: cell-based; parameters: expressed in transfected cells; conditions: IonWorks planar patch clamp, average IC50, read-out: Kv1.3 IC50 by IWQ
Experimental: Assay Plate preparation for electrophysiology. […] Before experiments, each sample was thawed at room temperature and an aliquot (70 to 80 μl) was transferred to a well in a 96-well polypropylene plate. In order to prepare the Assay Plate, several dilutions were made from the pharmacokinetic serum samples to give rise to Test Solutions. Dilutions of serum samples from the pharmacokinetic study were into 10% Phosphate Buffered Saline (PBS, with Ca^2+ and Mg^2+). […] Standard inhibition curves were also prepared in the Assay Plate.
Cell preparation for electrophysiology. CHO cells stably expressing the voltage-activated K^+ channel, Kv1.3 were plated in T-175 tissue culture flasks (at a density of 5×10^6) 2 days before experimentation and allowed to grow to around 95% confluence. […] The mean K^+ current amplitude was measured between 430 and 440 ms and the data were exported to a Microsoft Excel spreadsheet. The amplitude of the K^+ current in the presence of each concentration of the Test Solution or Standard was expressed as a percentage of the K^+ current in control conditions in the same well.
Standard inhibition curves were generated for each standard in various levels of rat serum and expressed as current percent of control (POC) versus log of nM concentration. […]

[2] = target: T1, Kv1.3; assay: Whole cell patch clamp electrophysiology on HEK293 cells stably expressing human Kv1.3; format: cell-based
[3] = tested on: IL-2 and IFNg production from PMA and anti-CD3 stimulated human PBMCs; assay: Inhibition of T cell cytokine production following PMA and anti-CD3 antibody stimulation of PBMCs; format: cell-based; conditions: 48 hr
From the text: Inhibition of T cell cytokine production following PMA and anti-CD3 antibody stimulation of PBMCs. PBMC's were previously isolated from normal human donor Leukophoresis packs, purified by density gradient centrifugation (Ficoll Hypaque), cryopreserved in CPZ Cryopreservation Medium Complete (INCELL, MCPZF-100 plus 10% DMSO final). PBMC's were thawed (95% viability), washed, and seeded at 2×10^5 cells per well in culture medium (RPMI medium 1640; GIBCO) supplemented with 10% fetal calf serum, 100 U/ml penicillin, […] streptomycin 2 mM L-glutamine, 100 uM non-essential amino acids, and 20 uM 2-ME) in 96-well flat-bottom tissue culture plates. Cells were pre-incubated with serially diluted (100 nM-0.001 nM final) ShK[1-35], Fc-L10-ShK[1-35] or fc control for 90 min before stimulating for 48 hr with PMA/anti-CD3 (1 ng/ml and 50 ng/ml, respectively) in a final assay volume of 200 ul. Analysis of the assay samples was performed using the Meso Scale Discovery (MSD) SECTOR™ Imager 6000 (Meso Scale Discovery, Gaithersbury, Md.) to measure the IL-2 and IFNg protein levels by utilizing electrochemiluminescence (ECL). […] For each well, 20 ul of Ruthenium-labeled detection antibodies (1 ug/ml final in Antibody Dilution Buffer; […], TNF, IFNγ) and 130 ul of 2×MSD Read Buffer added, final volume 150 ul. […] The plates were then read on the SECTOR™ Imager 6000. […]

[4] = tested on: IL-2 and IFNg production from anti-CD3 and anti-CD28 stimulated human PBMCs; assay: Inhibition of T cell cytokine production following anti-CD3 and anti-CD28 antibody stimulation of PBMCs; format: cell-based; conditions: 48 hours
Experimental: Inhibition of T cell cytokine production following Anti-CD3 and anti-CD28 antibody stimulation of PBMCs. PBMCs were previously isolated from normal human donor Leukopheresis packs, purified by density gradient centrifugation (Ficoll Hypaque), and cryopreserved using INCELL Freezing Medium. PBMCs were thawed (95% viability), washed, and seeded (in RPMI complete medium containing serum replacement, PSG) at 2×10^5 cells per well into 96-well flat bottom plates. Cells were pre-incubated with serially diluted (100 nM-0.003 nM final) ShK[1-35], Fc-L10-ShK[1-35], or Fc control for 1 hour before the addition of aCD3 and aCD28 (2.5 ng/mL and 100 ng/mL respectively) in a final assay volume of […]. Supernatants were collected after 48 hours, and analyzed using the Meso Scale Discovery (MSD) SECTOR™ Imager 6000 (Meso Scale Discovery, Gaithersbury, Md.) to measure the IL-2 and IFNg protein levels by utilizing electrochemiluminescence (ECL). […] of supernatant was added to the MSD multi-spot 96-well plates (each well containing IL-2, TNFa, and IFNg capture antibodies). The plates were sealed and incubated at room temperature on a plate shaker for 1 hour. Then […] of Ruthenium-labeled detection antibodies (1 ug/ml final of IL-2, TNFα, and IFNγ in Antibody Dilution Buffer) and […] of 2×MSD Read Buffer were added. The plates were sealed, covered with tin foil, and incubated at room temperature on a plate shaker for 1 hour. The plates were then read on the SECTOR™ Imager 6000. […] (POC=Percent Of Control of response in the absence of inhibitor).

[5] = tested on: T cell proliferation in human PBMCs; assay: Inhibition of T cell proliferation (3H-thymidine incorporation) following anti-CD3 and anti-CD28 stimulation of PBMCs; format: cell-based; conditions: pre-incubation with anti-human CD32 blocking antibody
From the text: Inhibition of T cell proliferation following anti-CD3 and anti-CD28 antibody stimulation of PBMCs. PBMC's were previously isolated from normal human donor Leukophoresis packs, purified by density gradient centrifugation (Ficoll Hypaque), cryopreserved in CPZ Cryopreservation Medium Complete (INCELL, MCPZF-100 plus 10% DMSO final). PBMC's were thawed (95% viability), washed, and seeded at 2×10^5 cells per well in culture medium (RPMI medium 1640; GIBCO) supplemented with 10% fetal calf serum, 100 U/ml penicillin, […] streptomycin, 2 mM L-glutamine, 100 μM non-essential amino acids, and 20 μM 2-ME) in 96-well flat-bottom tissue culture plates. Cells were pre-incubated with either anti-human CD32 (FcyRII) blocking antibody (per manufacturers instructions EASY SEP Human Biotin Selection Kit #18553, StemCell Technologies Vancouver, BC) or Fc-L10-ShK (100 nM-0.001 nM final) for 45 min. Fc-L10-ShK (100 nM-0.001 nM final) was then added to the cells containing anti-human CD32 blocking antibody while medium was added to the cells containing Fc-L10-ShK. Both sets were incubated for an additional 45 min before stimulating for 48 hr with aCD3/aCD28 (0.2 ng/ml and 100 ng/ml, respectively). Final assay volume was 200 ul. […] Cells were then harvested onto glass fiber filters and radioactivity was measured in a B-scintillation counter.

[6] = target: HEK 293 cells overexpressing human Kv1.3 (Homo sapiens, UniProt P22001); assay: Immunohistochemistry analysis of binding to HEK 293 cells overexpressing human Kv1.3; conditions: 5 ug/ml, fixed cells, confocal microscopy
Sequence of HEK 293 cells overexpressing human Kv1.3 (P22001 whole entry): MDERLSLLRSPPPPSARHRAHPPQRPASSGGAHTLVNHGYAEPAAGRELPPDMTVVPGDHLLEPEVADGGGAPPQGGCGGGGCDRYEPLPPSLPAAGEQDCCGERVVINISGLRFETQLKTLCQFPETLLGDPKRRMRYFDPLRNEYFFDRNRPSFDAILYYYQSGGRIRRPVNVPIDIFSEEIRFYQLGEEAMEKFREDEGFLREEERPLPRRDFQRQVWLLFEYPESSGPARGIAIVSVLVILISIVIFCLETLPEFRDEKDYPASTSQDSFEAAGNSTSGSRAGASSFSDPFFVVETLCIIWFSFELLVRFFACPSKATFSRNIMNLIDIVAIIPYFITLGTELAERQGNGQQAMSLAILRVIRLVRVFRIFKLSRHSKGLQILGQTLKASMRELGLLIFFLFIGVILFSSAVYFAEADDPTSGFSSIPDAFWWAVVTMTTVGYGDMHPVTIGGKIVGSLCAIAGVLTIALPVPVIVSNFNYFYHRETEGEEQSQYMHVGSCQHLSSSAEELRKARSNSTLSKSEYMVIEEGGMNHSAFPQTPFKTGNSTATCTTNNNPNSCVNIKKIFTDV
Experimental: HEK 293 cells overexpressing human Kv1.3 (HEK Kv1.3) were obtained from BioFocus plc (Cambridge, UK) and maintained per manufacturer's recommendation. The parental HEK 293 cell line was used as a control. Cells were plated on Poly-D-Lysine 24 well plates (#35-4414; Becton-Dickinson, Bedford, Mass.) and allowed to grow to approximately 70% confluence. HEK KV1.3 were plated at 0.5×10e5 cells/well in 1 ml/well of medium. HEK 293 cells were plated at a density of 1.5×10e5 cells/well in 1 ml/well of medium. […] Cells were stained by incubating with 0.2 ml/well of 5 ug/ml Fc-L10-ShK[1-35] in PBS/BSA for 30′ at room temperature. Fc-L10-ShK[1-35] was aspirated and then the cells were washed one time with PBS/0.5% BSA. Detection antibody (Goat F(ab)2 anti-human IgG-phycoerythrin; Southern Biotech Associates, Birmingham, Ala.) was added to the wells at 5 ug/ml in PBS/0.5% BSA and incubated for 30′ at room temperature. Wash cells once with PBS/0.5% BSA and examine using confocal microscopy (LSM 510 Meta Confocal Microscope; Carl Zeiss AG, Germany). […] In disease settings where activated T effector memory cells have been reported to overproduce Kv1.3, this reagent can find utility in both targeting these cells and in their detection.

[7] = tested on: upregulation of CD40L and IL-2R on CD4+ T cells in human whole blood; assay: Ex vivo human whole blood assay, thapsigargin-induced cell surface CD40L and IL-2R on T cells (FACS); format: cell-based; conditions: 24 hours
[8] = target: fixed HEK 293 cells overexpressing Kv1.3 (Homo sapiens, UniProt P22001); conditions: whole cell immunoassay
Sequence of fixed HEK 293 cells overexpressing Kv1.3 (P22001 whole entry): as above
Experimental: Parent HEK 293 cells or HEK Kv1.3 cells were plated at 3×10e4 cells/well in poly-D-Lysine coated ninety-six well plates (#35-4461; Becton-Dickinson, Bedford, Mass.). Cells were fixed with formalin (Sigma HT50-1-1 Formalin solution, diluted 1:1 with PBS/0.5% BSA before use) by removing cell growth medium, adding 0.2 ml/well formalin solution and incubating at room temperature for 25 minutes and then washing one time with 100 ul/well of PBS/0.5% BSA. Wells were blocked by addition of 0.3 ml/well of BSA blocker (50-61-00; KPL 10% BSA Diluent/Blocking Solution, diluted 1:1 with PBS; KPL, Gaithersburg, Md.) followed by incubation at room temperature, with shaking, for 3 hr. Plates were washed 2 times with 1×KP Wash Buffer (50-63-00; KPL). Samples were diluted in Dilution Buffer (PBS/0.5% Tween-20) or Dilution Buffer with 1% Male Lewis Rat Serum (RATSRM-M; Bioreclamation Inc., Hicksville, N.Y.) and 0.1 ml/well was added to blocked plates, incubating for 1 hr at room temperature with shaking. […] Absorbance was read at 450 nm on a Molecular Devices SpectroMax 340 (Sunnyvale, Calif.).
Whole cell immunoassay was performed as above with the following modifications. […] Absorbances were read at 405 nm after stopping reactions by addition of 0.1 ml/well of 1% SDS.

T1 sequence (P22001 whole entry): as above

## E. coli-derived ShK[2-35]-L-Fc
[1]
  IC50: 4.9 nM

## Fc-L10-ShK[1-35]: Fc region of human IgG1 fused in-frame via L10 linker to Kv1.3 inhibitor peptide ShK[1-35]; SEQ ID NO: 78
[2]; HEK293 cells stably expressing human Kv1.3, mean±s.e.m., estimated, read-out: IC50, block of outward potassium current
  IC50: 0.015 ± 0.002 nM
[2]; patch clamp electrophysiology
  Blockade of human Kv1.3 current (in words): potently blocked human Kv1.3
[3]
  Inhibition of IFNγ production: potently inhibits IL-2 and IFNg production
  Inhibition of IL-2 production: potently inhibits IL-2 and IFNg production
[4]
  Inhibition of IFNg production: nearly complete
  Inhibition of IL-2 production: nearly complete
[5]
  Effect of pre-blocking with anti-CD32 (FcR) blocking antibody on inhibition of T cell proliferation: little effect
[6]
  Binding (staining) to Kv1.3 overexpressing HEK 293 cells: binds to Kv1.3 overexpressing HEK 293 cells
  Binding (staining) to untransfected HEK 293 cells: little binding to untransfected cells
[7]
  Thapsigargin-induced upregulation of CD40L on T cells in human whole blood: suppressed
  Thapsigargin-induced upregulation of the IL-2R on T cells in human whole blood: suppressed
[8]
  Binding response on fixed HEK 293 cells overexpressing Kv1.3: dose-dependent increase in the peptibody binding
  Binding response on untransfected HEK 293 cells: does not elicit a response from untransfected HEK 293 cells
